The assay has as its target T1, B-cell maturation antigen (BCMA) (human, UniProt Q02223 1-184).
T1 construct: whole, on cells
T1 sequence (looked up): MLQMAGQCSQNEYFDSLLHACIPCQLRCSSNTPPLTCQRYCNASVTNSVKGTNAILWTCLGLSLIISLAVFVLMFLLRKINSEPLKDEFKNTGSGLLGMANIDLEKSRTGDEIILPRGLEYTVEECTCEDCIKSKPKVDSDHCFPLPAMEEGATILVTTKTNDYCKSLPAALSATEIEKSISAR
The assay can be described thus: Flow cytometric trogocytosis assay: 1:1 co-culture of CAR T cells with KMS-12-BM for 0, 1, 2 and 4 h. BCMA loss from the tumour cells (upper panel) and BCMA gain on CAR T cells (lower panel). No concentration axis. (In general: In flow cytometry, cells or beads pass a laser one at a time.)

B1: 22-BBζ CAR (CD22-BBζ-DsRed, m971 CD22-specific scFv) (other)
chain: QVQLQQSGPGLVKPSQTLSLTCAISGDSVSSNSAAWNWIRQSPSRGLEWLGRTYYRSKWYNDYAVSVKSRITINPDTSKNQFSLQLNSVTPEDTAVYYCAREVTGDLEDAFDIWGQGTMVTVSSGGGGSDIQMTQSPSSLSASVGDRVTITCRASQTIWSYLNWYQQRPGKAPNLLIYAASSLQSGVPSRFSGRGSGTDFTLTISSLQAEDFATYYCQQSYSIPQTFGQGTKLEIKAAAPTTTPAPRPPTPAPTIASQPLSLRPEACRPAAGGAVHTRGLDFACDIYIWAPLAGTCGVLLLSLVITLYCNKRGRKKLLYIFKQPFMRPVQTTQEEDGCSCRFPEEEEGGCELRVKFSRSADAPAYQQGQNQLYNELNLGRREEYDVLDKRRGRDPEMGGKPRRKNPQEGLYNELQKDKMAEAYSEIGMKGERRRGKGHDGLYQGLSTATKDTYDALHMQALPPR
notes: Chimeric antigen receptor on human T cells
For B1, the binding result is “no binding”.

(Values after patent US20220401475A1 (Memorial Sloan Kettering, published 2022).)
